The target of one assay is T1, Caspase-3 (Homo sapiens, UniProt P42574).
T1 construct: endogenous in cells; host or cells: T-47D
T1 sequence (P42574 29-277): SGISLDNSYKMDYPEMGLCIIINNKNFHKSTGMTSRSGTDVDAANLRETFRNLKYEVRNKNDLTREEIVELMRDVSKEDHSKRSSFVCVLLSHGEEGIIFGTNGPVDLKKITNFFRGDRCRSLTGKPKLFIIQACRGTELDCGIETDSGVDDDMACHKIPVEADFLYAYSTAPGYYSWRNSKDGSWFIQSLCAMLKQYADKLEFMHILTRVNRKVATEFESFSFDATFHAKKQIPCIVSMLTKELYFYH
Put plainly: ApopAlert CPP32/Caspase-3 assay in T-47D cells. Format: cell-based. The conditions noted are these: 250 ng/ml, 2 h, with DEVD-CHO control. The protocol: FIG. 24. Induction of Caspase-3 by bPRL-G129R. The effect of hPRL-G129R on Caspase-3 activation in T-47D cells using an ApopAlert CPP32/Caspase-3 assay kit (Clontech, Palo Alto, Calif.) is shown. T-47D cells were treated with 250 ng/ml of hPRL-G129R for 2 h. […] The samples were in duplicate and each sample constituted about 2 million cells.
In addition, the effect of hPRL-G129R on Caspase-3 activation was assayed in T-47D cells using an ApopAlert CPP32/Caspase-3 assay kit (Clontech, Palo Alto, Calif.) as presented in FIG. 24. T-47D cells were treated with 250 ng/ml of hPRL-G129R for 2 h.

Assay [1] relates to T47D human breast cancer cells. Briefly: Mixed cell culture assay with transfected L cells, T47D. In kind it is cell-based. The text has this: For certain experiments, a mixed cell culture assay was used, diagramatically represented in FIG. 6. In this assay, breast cancer cells were co-cultured with expressor cells which had been transfected with nucleic acid encoding PRL or a PRL variant and expressing those recombinant proteins. By varying the number of expressor cells, the amount of PRL or PRL variant present in the mixed cell culture was increased or decreased. […] In certain wells, which served as a control, no expresser cells were added. Then, increasing numbers of expresser cells (transfected L cells expressing either HPRL (L-PRL) or hPRLA (L-PRLA)) were added to breast cancer cell-containing wells to create mixed cultures. The same numbers of expressor cells were cultured in parallel (without T47D cells) to serve as controls. After culturing under standard conditions for a period of time, the number of cells present in the wells was counted, and the number of L cells in the corresponding control culture was subtracted. The resulting number could then be compared to the number of T47D cells in the T47D control culture to evaluate the effects of the recombinant product on breast cancer cell proliferation.

The subject of a further assay is MCF-7 cells. Put plainly: TUNEL assay, MCF-7. In kind it is cell-based, human. The conditions noted are these: 250 ng G129R, 24 hours. As to the method:
(§1) Cell Culture. T-47D cells obtained from ATCC were grown in RPMI 1640 (phenol red free), supplemented with 10% FBS (GIBCO BRL). BT-474 cells were grown in RPMI 1640 medium (phenol red free) supplemented with 10% FBS and ATCC recommended supplements. MCF-7 cells were grown in DMEM medium (phenol red free), supplemented with 10% FBS. The cells were grown at 37° C. in a humid atmosphere in the presence of 5% CO2. The MDA-MB-134 cells were grown in Leibovitz's L-15 medium supplemented with 20% FBS and grown in CO2 free atmosphere. The breast cancer cells were trypsinized (0.02% Trypsin—EDTA) and grown in their respective media (phenol red free) supplemented with 10% CSS (Charcoal stripped serum) for a week. Subsequently the cells were trypsinized again and plated onto an 8 chambered slide system (Lab Tek II) at a confluence of 60–70% per chamber. The next day treatments were performed on the breast cancer cells using their respective media(phenol red free), supplemented with 1% CSS. The MDA-MB-134 VI cells were grown in phenol red containing medium, but with the same serum conditions as the other breast cancer cells.
Terminal deoxynucleotidly transferase mediated dUTP nick end labeling (TUNEL) assay. Nicks of the fragmented DNA are labeled at their 3-OH ends. The fluorescein-labeled dUTP is incorporated at the 3-OH ends by using the enzyme terminal deoxynucleotidyl transferase. […]

Another assay deals with BT-474 cells. Briefly: TUNEL assay, BT-474. In kind it is cell-based, human. As to the method:
as §1
Terminal deoxynucleotidly transferase mediated dUTP nick end labeling (TUNEL) assay. Nicks of the fragmented DNA are labeled at their 3-OH ends. The fluorescein-labeled dUTP is incorporated at the 3-OH ends by using the enzyme terminal deoxynucleotidyl transferase. After the assigned period of treatment the chambers were dismantled as per the manufacturer's instructions and the TUNEL assay (Apoptosis detection system, Fluorescein- Promega) was performed as per the manufacturer's instructions. The slide was examined under a FITC filter using an Olympus IX 70 microscope system.

Assay [2] has as its system MCF-7 human breast cancer cells. Put plainly: Mixed cell culture assay with transfected L cells, MCF-7. In kind it is cell-based. The conditions noted are these: MCF-7, three days.
The target in a further assay is T2, hPRLR (Homo sapiens, UniProt P16471).
T2 sequence (P16471 25-622): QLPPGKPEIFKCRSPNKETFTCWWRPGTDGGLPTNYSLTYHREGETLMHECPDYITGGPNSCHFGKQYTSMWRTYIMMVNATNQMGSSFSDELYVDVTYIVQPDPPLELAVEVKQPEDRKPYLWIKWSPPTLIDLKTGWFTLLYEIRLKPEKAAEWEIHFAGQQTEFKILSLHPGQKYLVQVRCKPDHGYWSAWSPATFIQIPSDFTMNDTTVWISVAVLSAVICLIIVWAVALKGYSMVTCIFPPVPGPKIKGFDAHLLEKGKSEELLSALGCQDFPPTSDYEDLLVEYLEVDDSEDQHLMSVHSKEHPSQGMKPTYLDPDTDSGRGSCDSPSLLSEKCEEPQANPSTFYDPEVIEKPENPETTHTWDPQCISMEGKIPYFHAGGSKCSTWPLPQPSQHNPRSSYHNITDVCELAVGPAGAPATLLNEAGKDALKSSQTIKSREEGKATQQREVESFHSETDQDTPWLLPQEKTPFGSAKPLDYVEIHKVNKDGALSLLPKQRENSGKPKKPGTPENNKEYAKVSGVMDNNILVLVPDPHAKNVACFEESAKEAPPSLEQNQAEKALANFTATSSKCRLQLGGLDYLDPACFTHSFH
The conditions noted are these: Goffin et al., 1996; cited from earlier work.

The subject of a further assay is T47-D cells. Briefly: Co-culture with L-G129R cells, T47-D. The conditions noted are these: T47-D co-cultured with L-G129R cells. In kind it is cell-based, human. The text has this: The co-culture experimental set-up provides a sustained presence of biologically active hPRL-G129R, thereby resulting in a maximal response in these tumor cells.

The source of these data is patent US7115556B2, “Use of anti-prolactin agents to treat proliferative conditions” (Greenville Hospital System, priority 1998, dated 2006).

B1: hPRL-G129R: variant of human prolactin having a substitution of the glycine at position 129 with an arginine residue; prolactin receptor antagonist (protein)
chain: LPICPGGAARCQVTLRDLFDRAVVLSHYIHNLSSEMFSEFDKRYTHGRGFITKAINSCHTSSLATPEDKEQAQQMNQKDFLSLIVSILRSWNEPLYHLVTEVRGMQEAPEAILSKAVEIEEQTKRLLERMELIVSQVHPETKENEIYPVWSGLPSLQMADEESRLSAYYNLLHCLRRDSHKIDNYLKLLKCRIIHNNNC
On to B1, for which the Caspase-3 activation result in the assay with Caspase-3 is “Caspase-3 induction”. The “effect on proliferation in mixed cell culture” value in assay [1] (T47D, three days, effect greater than on MCF-7) is recorded as “inhibitory effect”; in assay [2], “inhibitory effect”. The “inhibition of T47D proliferation” value in assay [1] (co-culture with L cells expressing hPRLA, 24 h to five days) is given as “up to 100%”. Besides, the “induction of apoptosis DNA fragmentation” value is listed as “induced apoptosis” with MCF-7 cells and “induced apoptosis” in the assay with BT-474 cells (250 ng G129R, 24 hours). Further, the “apoptosis and hPRL competition, as in T-47D” value with BT-474 cells (BT-474 cells) is given as “same results”. For the same molecule, the “effect in PRLR reporter gene assay” value with hPRLR is “antagonist effect”. The “inhibition of cell proliferation in co-culture” value with T47-D cells was “Complete inhibition”.
